Laboratory results from patent US20150329626A1 (Eli Lilly, published 2015).
Where a chain is given by its changes, count along the chain named.

Columns and labels:
[1] = target: T1, cyno VEGFR2 extracellular domain (cynomolgus monkey, UniProt A0A2K5VE63 20-764); experiment: Biacore SPR, 37 C, n = 3, compound captured on Protein A, VEGFR2-ECD as analyte
T1 construct: extracellular domain; also called cynomolgus monkey VEGFR2

[2] = target: T2, human VEGFR2 extracellular domain (human, UniProt P35968 20-764); experiment: as above
T2 construct: also called hVEGFR2-ECD; human VEGFR2-ECD

[3] = target: T3, rabbit VEGFR2 extracellular domain (rabbit, UniProt G1SN50 20-764); experiment: as above
T3 construct: extracellular domain

[4] = target: T4, dog VEGFR2 extracellular domain (dog, UniProt Q2XPT7 20-763); experiment: as above
T4 construct: extracellular domain

cyno Ang2 = target: T5, cyno Ang2 (cynomolgus monkey, UniProt A0A2K5VNX6 19-496); experiment: Biacore SPR, 37 C, n = 3, compound captured on Protein A
T5 construct: also called cynomolgus monkey Ang2
T5 sequence: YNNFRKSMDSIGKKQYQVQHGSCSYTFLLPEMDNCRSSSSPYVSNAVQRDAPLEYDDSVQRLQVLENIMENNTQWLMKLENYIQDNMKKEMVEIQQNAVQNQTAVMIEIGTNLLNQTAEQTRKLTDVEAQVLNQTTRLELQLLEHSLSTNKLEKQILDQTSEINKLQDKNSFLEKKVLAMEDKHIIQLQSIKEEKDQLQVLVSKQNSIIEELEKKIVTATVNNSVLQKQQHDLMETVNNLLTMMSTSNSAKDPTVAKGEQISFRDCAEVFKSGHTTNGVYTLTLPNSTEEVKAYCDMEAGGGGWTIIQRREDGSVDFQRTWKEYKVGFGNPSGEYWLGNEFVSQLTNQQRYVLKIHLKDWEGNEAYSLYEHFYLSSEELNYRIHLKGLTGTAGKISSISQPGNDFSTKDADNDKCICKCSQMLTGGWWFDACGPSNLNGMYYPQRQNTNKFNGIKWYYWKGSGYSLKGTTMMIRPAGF

dog Ang2 = target: T6, dog Ang2 (dog, UniProt A0A8J8 19-495, limits assumed); experiment: as above
T6 sequence (looked up): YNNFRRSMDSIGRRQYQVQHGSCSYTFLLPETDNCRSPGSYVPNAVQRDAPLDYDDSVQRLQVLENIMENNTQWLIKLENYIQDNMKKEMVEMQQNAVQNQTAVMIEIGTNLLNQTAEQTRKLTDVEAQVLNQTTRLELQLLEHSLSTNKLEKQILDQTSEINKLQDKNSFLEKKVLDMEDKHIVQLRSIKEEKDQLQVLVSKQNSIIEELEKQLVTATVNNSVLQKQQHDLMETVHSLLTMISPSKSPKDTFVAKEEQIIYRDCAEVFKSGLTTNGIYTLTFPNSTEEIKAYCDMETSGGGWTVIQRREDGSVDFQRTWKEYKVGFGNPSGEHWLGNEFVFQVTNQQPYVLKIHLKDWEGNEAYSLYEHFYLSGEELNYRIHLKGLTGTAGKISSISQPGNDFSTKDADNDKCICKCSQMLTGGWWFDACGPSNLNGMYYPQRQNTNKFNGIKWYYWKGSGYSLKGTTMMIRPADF

human Ang2 [5] = target: T7, human Ang2 (human, UniProt O15123 19-496); experiment: as above
T7 construct: also called hAng2; human angiopoietin-2
T7 sequence: T5 sequence with G258E, V279I, L284F, V291I, A410G, G468A, G477D

mouse Ang2 = target: T8, mouse Ang2 (mouse, UniProt O35608 19-496, limits assumed); experiment: as above
T8 sequence (looked up): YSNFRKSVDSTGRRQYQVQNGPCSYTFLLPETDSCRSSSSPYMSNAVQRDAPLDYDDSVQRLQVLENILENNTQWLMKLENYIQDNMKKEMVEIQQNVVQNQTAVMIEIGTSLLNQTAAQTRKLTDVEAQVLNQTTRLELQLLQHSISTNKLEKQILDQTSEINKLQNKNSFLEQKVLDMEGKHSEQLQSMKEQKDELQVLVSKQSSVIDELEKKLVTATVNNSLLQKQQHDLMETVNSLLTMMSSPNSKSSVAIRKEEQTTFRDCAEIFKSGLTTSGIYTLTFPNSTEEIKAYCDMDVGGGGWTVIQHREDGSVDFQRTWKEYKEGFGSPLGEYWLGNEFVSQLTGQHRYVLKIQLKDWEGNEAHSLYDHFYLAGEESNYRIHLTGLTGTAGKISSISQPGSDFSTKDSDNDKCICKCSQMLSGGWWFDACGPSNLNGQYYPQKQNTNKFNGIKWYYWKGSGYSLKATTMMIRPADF

rabbit Ang2 = target: T9, rabbit Ang2 (rabbit, UniProt G1T9B3 19-496); experiment: as above
T9 sequence: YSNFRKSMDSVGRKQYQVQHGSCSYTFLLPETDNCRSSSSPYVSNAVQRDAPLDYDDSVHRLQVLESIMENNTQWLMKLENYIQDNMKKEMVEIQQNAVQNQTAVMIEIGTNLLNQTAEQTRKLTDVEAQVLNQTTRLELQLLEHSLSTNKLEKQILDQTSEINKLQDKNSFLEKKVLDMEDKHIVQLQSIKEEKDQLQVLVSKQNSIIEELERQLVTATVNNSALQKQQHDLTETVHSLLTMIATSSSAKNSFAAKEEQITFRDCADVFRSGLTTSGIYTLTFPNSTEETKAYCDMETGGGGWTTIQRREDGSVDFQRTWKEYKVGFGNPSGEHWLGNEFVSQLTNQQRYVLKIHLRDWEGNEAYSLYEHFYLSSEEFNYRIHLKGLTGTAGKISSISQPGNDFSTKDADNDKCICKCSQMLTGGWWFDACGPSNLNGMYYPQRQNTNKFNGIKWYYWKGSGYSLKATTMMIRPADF

human Ang2 [6] = target: T7, human Ang2; experiment: competition ELISA: blocking of biotinylated human Ang2 binding to plate-coated human Tie2-Fc
[7] = target: human VEGFR2 on cells (ECFC, HMVEC-d) (human, UniProt P35968 20-1356); experiment: cell-based or functional assay
human Ang2 [8] = target: T7, human Ang2; experiment: cell-based or functional assay
[9] = target: T2, human VEGFR2 extracellular domain; experiment: Biacore SPR, 25 C, compound captured on Protein A, VEGFR2-ECD as analyte
human Ang2 [10] = target: T7, human Ang2; experiment: Biacore SPR, 25 C, compound captured on Protein A, Ang2 as analyte

T1 sequence (A0A2K5VE63 entry or part of it): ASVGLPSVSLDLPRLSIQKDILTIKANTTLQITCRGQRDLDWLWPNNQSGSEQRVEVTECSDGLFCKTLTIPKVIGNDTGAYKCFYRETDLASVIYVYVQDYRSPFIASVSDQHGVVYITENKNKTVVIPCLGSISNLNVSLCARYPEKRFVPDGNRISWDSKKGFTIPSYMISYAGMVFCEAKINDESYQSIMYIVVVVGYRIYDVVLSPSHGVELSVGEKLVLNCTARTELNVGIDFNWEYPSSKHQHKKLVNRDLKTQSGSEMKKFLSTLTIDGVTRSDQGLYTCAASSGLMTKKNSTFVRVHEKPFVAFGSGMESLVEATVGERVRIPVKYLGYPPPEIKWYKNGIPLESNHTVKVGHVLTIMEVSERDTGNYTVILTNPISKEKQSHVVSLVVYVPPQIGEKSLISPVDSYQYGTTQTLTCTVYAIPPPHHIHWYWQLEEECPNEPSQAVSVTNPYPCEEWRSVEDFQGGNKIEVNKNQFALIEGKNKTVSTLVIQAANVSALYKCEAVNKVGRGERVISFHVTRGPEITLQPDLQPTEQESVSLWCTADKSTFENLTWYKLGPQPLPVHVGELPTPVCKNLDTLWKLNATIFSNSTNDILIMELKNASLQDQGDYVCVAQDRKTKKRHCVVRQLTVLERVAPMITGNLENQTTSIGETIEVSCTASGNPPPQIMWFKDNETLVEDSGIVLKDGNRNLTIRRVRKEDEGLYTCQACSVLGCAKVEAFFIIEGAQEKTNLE
T2 sequence (P35968 20-764): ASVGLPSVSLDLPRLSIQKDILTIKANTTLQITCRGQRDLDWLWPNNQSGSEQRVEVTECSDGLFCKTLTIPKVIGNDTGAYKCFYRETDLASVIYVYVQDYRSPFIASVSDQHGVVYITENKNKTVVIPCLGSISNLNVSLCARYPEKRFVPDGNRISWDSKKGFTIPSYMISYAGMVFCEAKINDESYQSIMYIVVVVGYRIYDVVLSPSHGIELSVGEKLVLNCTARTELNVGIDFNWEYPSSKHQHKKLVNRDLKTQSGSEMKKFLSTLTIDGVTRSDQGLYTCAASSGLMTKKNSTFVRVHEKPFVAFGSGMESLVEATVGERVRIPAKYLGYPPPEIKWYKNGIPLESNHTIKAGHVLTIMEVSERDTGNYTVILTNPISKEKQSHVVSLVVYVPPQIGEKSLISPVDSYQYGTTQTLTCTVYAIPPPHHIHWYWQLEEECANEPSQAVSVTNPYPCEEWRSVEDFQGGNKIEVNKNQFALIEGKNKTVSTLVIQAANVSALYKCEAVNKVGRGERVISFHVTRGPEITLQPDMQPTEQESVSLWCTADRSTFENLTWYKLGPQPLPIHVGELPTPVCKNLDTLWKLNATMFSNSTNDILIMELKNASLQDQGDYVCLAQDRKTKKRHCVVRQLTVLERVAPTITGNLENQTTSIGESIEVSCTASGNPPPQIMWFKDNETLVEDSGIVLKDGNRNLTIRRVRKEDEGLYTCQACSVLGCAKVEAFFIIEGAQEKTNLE

B1: Compound F (bispecific antibody, human IgG4 S228P, kappa, F234A L235A)
heavy: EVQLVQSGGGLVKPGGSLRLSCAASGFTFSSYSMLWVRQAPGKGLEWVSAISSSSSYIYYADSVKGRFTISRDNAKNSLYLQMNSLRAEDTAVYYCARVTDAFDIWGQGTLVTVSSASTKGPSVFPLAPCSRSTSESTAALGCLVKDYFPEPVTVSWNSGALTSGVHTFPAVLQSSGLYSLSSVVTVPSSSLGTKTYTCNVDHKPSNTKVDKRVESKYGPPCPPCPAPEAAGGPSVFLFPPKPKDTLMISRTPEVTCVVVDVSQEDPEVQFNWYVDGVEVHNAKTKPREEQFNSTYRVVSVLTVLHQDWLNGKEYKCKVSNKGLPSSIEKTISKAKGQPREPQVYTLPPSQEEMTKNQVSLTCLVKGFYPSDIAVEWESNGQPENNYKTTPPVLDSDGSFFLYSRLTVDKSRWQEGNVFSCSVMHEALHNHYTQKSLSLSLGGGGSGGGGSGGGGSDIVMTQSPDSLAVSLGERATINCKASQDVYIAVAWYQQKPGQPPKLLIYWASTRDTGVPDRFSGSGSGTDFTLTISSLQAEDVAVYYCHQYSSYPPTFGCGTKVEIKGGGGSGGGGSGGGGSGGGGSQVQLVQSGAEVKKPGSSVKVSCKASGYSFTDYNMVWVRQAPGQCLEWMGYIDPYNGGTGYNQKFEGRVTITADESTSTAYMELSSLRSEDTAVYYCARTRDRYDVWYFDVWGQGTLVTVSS
light: DIQMTQSPSSVSASVGDRVTITCRASRGIDNWLTWYQQKPGKAPKLLIYEASSLQSGVPSRFSGSGSGTDFTLTISSLQPEDFATYYCQQAKAFPPTFGGGTKVDIKRTVAAPSVFIFPPSDEQLKSGTASVVCLLNNFYPREAKVQWKVDNALQSGNSQESVTEQDSKDSTYSLSSTLTLSKADYEKHKVYACEVTHQGLSSPVTKSFNRGEC
notes: also called Cmpd F
- Kd [1]: 3.3 nM
- koff [1]: 0.00011 s⁻¹
- kon [1]: 34000 M⁻¹ s⁻¹
- Kd [2]: 4.6 nM
- koff [2]: 0.00012 s⁻¹
- kon [2]: 25000 M⁻¹ s⁻¹
- Kd [3]: 6.1 nM
- koff [3]: 0.00023 s⁻¹
- kon [3]: 38000 M⁻¹ s⁻¹
- Kd [4]: 37 nM
- koff [4]: 0.0015 s⁻¹
- kon [4]: 41000 M⁻¹ s⁻¹
- Kd (cyno Ang2): 0.3 nM
- koff (cyno Ang2): 0.00028 s⁻¹
- kon (cyno Ang2): 960000 M⁻¹ s⁻¹
- Kd (dog Ang2): 0.24 nM
- koff (dog Ang2): 9e-05 s⁻¹
- kon (dog Ang2): 360000 M⁻¹ s⁻¹
- Kd (human Ang2 [5]): 0.1 nM
- koff (human Ang2 [5]): 7e-05 s⁻¹
- kon (human Ang2 [5]): 820000 M⁻¹ s⁻¹
- Kd (mouse Ang2): 0.23 nM
- koff (mouse Ang2): 8e-05 s⁻¹
- kon (mouse Ang2): 360000 M⁻¹ s⁻¹
- Kd (rabbit Ang2): 0.42 nM
- koff (rabbit Ang2): 0.00011 s⁻¹
- kon (rabbit Ang2): 270000 M⁻¹ s⁻¹
- IC50 (human Ang2 [6]): 0.034 nM
- inhibition of human VEGF165-induced proliferation of HMVEC-d (IC50) [7]: 19.2 nM
- inhibition of human VEGF-induced cord formation in ADSC/ECFC co-culture (IC50) [7]: 6.04 nM
- inhibition of human Ang2 induced phospho-Tie2 in CHO-Tie2 cells (IC50) (human Ang2 [8]): 0.587 nM
- Kd [9]: 0.721 nM
- koff [9]: 1.8e-05 s⁻¹
- kon [9]: 25000 M⁻¹ s⁻¹
- Kd (human Ang2 [10]): 0.673 nM
- koff (human Ang2 [10]): 0.000105 s⁻¹
- kon (human Ang2 [10]): 156000 M⁻¹ s⁻¹

B2: Compound A (bispecific antibody, human IgG1, kappa)
heavy: not shown
light: DIQMTQSPSSVSASIGDRVTITCRASQGIDNWLGWYQQKPGKAPKLLIYDASNLDTGVPSRFSGSGSGTYFTLTISSLQAEDFAVYFCQQAKAFPPTFGGGTKVDIKRTVAAPSVFIFPPSDEQLKSGTASVVCLLNNFYPREAKVQWKVDNALQSGNSQESVTEQDSKDSTYSLSSTLTLSKADYEKHKVYACEVTHQGLSSPVTKSFNRGEC
- Kd [9]: 0.711 nM
- koff [9]: 4.8e-05 s⁻¹
- kon [9]: 68000 M⁻¹ s⁻¹
- Kd (human Ang2 [10]): < 0.1 nM
- koff (human Ang2 [10]): < 1e-05 s⁻¹
- kon (human Ang2 [10]): 183000 M⁻¹ s⁻¹

B3: Compound E (bispecific antibody, human IgG4 S228P, kappa, F234A L235A)
heavy: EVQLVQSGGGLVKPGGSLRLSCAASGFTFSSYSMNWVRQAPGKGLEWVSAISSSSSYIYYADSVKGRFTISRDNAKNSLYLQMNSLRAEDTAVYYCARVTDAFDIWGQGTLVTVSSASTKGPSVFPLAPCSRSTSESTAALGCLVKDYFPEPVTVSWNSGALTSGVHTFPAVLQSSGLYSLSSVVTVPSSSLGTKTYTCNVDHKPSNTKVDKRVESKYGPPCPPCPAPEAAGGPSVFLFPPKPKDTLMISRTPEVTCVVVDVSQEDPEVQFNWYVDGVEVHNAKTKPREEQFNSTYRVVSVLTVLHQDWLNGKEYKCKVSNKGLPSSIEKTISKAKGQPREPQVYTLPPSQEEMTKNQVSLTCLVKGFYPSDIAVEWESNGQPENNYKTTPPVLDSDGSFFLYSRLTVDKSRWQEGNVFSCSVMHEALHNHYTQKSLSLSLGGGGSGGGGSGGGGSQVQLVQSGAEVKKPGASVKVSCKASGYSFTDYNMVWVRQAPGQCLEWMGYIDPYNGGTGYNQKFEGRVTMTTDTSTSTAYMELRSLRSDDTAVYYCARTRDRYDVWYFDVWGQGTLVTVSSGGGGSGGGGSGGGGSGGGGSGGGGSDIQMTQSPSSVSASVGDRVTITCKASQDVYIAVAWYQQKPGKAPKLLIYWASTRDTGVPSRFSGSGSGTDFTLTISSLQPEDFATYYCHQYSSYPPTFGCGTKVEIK
light: B1 light with R27Q, Y49V
- Kd [9]: 1.11 nM
- koff [9]: 3.5e-05 s⁻¹
- kon [9]: 32000 M⁻¹ s⁻¹
- Kd (human Ang2 [10]): 0.407 nM
- koff (human Ang2 [10]): 9.7e-05 s⁻¹
- kon (human Ang2 [10]): 239000 M⁻¹ s⁻¹

B4: Compound C (bispecific antibody, human IgG4 S228P, kappa, F234A L235A)
heavy: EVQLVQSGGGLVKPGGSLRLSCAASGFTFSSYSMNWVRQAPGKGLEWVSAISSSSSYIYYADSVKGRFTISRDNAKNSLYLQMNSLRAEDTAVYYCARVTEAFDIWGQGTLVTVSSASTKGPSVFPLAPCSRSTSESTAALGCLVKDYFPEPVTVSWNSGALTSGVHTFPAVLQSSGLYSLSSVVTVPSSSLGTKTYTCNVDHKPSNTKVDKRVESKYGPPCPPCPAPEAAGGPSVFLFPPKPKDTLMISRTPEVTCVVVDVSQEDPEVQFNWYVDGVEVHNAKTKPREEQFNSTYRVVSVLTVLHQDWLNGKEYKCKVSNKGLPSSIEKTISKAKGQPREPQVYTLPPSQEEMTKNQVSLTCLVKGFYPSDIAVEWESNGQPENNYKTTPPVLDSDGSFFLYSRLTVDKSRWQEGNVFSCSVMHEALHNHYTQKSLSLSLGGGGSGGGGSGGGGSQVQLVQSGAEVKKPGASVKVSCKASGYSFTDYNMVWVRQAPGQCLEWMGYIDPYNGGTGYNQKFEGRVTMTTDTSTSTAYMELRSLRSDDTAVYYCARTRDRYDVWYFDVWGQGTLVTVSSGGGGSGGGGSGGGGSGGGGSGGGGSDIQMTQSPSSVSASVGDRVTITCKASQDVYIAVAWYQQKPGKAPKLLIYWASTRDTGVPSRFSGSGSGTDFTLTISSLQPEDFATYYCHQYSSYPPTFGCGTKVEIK
light: B1 light
- Kd [9]: 0.528 nM
- koff [9]: 2e-05 s⁻¹
- kon [9]: 38000 M⁻¹ s⁻¹
- Kd (human Ang2 [10]): 0.462 nM
- koff (human Ang2 [10]): 0.000105 s⁻¹
- kon (human Ang2 [10]): 226000 M⁻¹ s⁻¹

B5: Compound D (bispecific antibody, human IgG4 S228P, kappa, F234A L235A)
heavy: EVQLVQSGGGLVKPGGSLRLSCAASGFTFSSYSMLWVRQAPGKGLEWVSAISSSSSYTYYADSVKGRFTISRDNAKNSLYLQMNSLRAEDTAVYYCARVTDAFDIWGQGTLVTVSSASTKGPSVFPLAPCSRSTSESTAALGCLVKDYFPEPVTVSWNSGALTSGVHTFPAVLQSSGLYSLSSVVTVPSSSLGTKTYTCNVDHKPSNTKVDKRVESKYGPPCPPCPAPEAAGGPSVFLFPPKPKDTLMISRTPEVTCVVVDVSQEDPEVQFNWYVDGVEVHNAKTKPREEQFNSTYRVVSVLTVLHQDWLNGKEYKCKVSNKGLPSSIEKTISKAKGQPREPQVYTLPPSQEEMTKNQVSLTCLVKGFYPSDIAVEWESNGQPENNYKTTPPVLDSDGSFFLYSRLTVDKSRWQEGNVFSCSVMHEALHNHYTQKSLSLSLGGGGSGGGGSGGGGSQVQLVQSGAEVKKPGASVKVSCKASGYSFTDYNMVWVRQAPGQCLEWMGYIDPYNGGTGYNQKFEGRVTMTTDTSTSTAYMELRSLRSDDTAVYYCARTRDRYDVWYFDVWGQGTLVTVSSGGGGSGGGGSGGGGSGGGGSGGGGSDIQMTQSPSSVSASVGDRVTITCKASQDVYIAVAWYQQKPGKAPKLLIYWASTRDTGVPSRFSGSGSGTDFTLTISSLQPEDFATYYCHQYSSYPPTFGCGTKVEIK
light: B1 light with R27Q, Y49V, A93R
- Kd [9]: 0.86 nM
- koff [9]: 2.9e-05 s⁻¹
- kon [9]: 34000 M⁻¹ s⁻¹
- Kd (human Ang2 [10]): 0.489 nM
- koff (human Ang2 [10]): 8.6e-05 s⁻¹
- kon (human Ang2 [10]): 175000 M⁻¹ s⁻¹

B6: Compound B (bispecific antibody, human IgG4 S228P, kappa, F234A L235A)
heavy: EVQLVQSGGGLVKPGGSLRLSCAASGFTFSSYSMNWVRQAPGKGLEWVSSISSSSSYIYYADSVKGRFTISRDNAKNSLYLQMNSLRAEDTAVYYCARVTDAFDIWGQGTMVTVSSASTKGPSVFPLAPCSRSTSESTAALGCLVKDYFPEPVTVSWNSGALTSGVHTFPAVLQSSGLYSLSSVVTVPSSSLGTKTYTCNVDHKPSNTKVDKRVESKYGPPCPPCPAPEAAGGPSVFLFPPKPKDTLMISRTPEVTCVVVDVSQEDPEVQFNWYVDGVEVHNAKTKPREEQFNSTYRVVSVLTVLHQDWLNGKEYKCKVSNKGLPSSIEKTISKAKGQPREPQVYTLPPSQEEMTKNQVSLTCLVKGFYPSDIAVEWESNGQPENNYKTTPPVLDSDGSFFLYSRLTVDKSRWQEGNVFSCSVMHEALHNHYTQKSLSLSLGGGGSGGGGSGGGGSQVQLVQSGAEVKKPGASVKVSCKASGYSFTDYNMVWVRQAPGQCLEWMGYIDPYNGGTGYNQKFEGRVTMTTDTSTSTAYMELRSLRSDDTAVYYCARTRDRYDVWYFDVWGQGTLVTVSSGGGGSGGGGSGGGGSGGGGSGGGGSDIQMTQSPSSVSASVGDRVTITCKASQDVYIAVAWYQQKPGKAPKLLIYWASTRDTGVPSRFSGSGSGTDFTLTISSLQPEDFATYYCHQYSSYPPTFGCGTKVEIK
light: B2 light
- Kd [9]: 0.513 nM
- koff [9]: 4.1e-05 s⁻¹
- kon [9]: 81000 M⁻¹ s⁻¹
- Kd (human Ang2 [10]): < 0.1 nM
- koff (human Ang2 [10]): < 1e-05 s⁻¹
- kon (human Ang2 [10]): 285000 M⁻¹ s⁻¹
